These results are taken from paper doi:10.1101/2024.10.28.620641 (bioRxiv, 2024).

The series concerns the molecule itself. The series is described as follows: cryo-EM structure.

B1: Caulobacter crescentus Tad pilus ATPase CpaF (enzyme, Caulobacter crescentus NA1000, UniProt Q9L714 1-501, looked up)
chain: MFGKRDSSASGDPKAPPPAPAGGATIATRPQRVEPVAAPEPKAPAPKVSGPAPKPTVGLEQLRAAQGQPQTANIVREQSDYYHATKTTIFNALLNTIDLSQLAQLDLKQAGEEIRDIVAELVAIKNVSMSVAEQEHLVQDIINDVLGYGPLEPLLARDDIADIMVNGAHRVFIEVGGKVQLTNVRFRDNLQLMNICQRIVSQVGRRVDESSPICDARLPDGSRVNVIAPPLALDGPTLTIRKFKKDKLTMKNLVEFASISPEGARVLGVIGACRCNLVISGGTGSGKTTLLNTMTAFIDPTERVVTCEDAAELQLQQPHVVRLETRPPNLEGSGAVTMRDLVKNCLRMRPERIIVGEVRGPEAFDLLQAMNTGHDGSMGTLHANSPREAISRIESMITMGGYGLPSKTIKEMIVGSVDVIIQAARLRDGSRRITHITEVVGLEGDVIVTQDLFVYEITGEDEHGKVVGKHRSTGIARPRFWDRARYYGLERELAEALDAAE
One may read the stoichiometry N as the number of molecules, sites or subunits per partner or assembly. With B1, the “stoichiometry N” value came to 6.
